Laboratory results: patent US7488598B2, “Mutant purine nucleoside phosphorylase proteins and cellular delivery thereof” (priority 2001, dated 2009)
Values joined by “and” are separate entries in the source; they are usually repeats but may differ in a detail not shown here. Equal values may be shown once.

Tests used:
[1] = target: wild-type E. coli PNP (Escherichia coli, UniProt P0ABP8); conditions: Table III; 100 μM substrate; HPLC; average of separate experiments
[2] = target: E. coli PNP mutant M65A (Escherichia coli, UniProt P0ABP8, M65A)
[3] = target: E. coli PNP mutant M65V (Escherichia coli, UniProt P0ABP8, M65V); conditions: for M65V percent of wild-type activity: Table II, relative to wild-type PNP of the same line; for M65V, crude extract, rate of cleavage / M65V, pure enzyme, rate of cleavage: Table III, 100 μM substrate, HPLC, average of separate experiments
[4] = in vivo, 3 days
[5] = system: human cells in culture
[6] = system: tumor expressing wild-type enzyme; experiment: Anti-tumor response of tumors expressing wild-type enzyme; assay type: in vivo
[7] = system: Clostridium perfringens; assay type: biochemical
[8] = system: Cc1ncnc2c1ncn2[C@@H]1O[C@H]([C@H](C)O)[C@@H](O)[C@H]1O; experiment: purified protein, by the assay type; conditions: other: wild-type enzyme
[9] = system: Nc1ncnc2c1ncn2[C@@H]1O[C@@H](CO)[C@@H](O)[C@H]1O; experiment: purified protein, by the assay type; conditions: other: wild-type enzyme
[10] = system: Cc1ncnc2c1ncn2[C@H]1C[C@H](O)[C@@H](CO)O1; experiment: purified protein, by the assay type; conditions: other: wild-type enzyme
[11] = E. coli PNP enzyme activity with substrate allo-acet; conditions: Table IV, 0 denotes no measurable activity
[12] = E. coli PNP enzyme activity with substrate F-araA; conditions: percent of wild-type activity
[13] = E. coli PNP enzyme activity with substrate MeP-dR; conditions: substrate MeP-dR; for Percent of Control Activity, MeP-dR: percent of wild-type activity; for Activity, MeP-dR: Table IV, 0 denotes no measurable activity
[14] = E. coli PNP enzyme activity with substrate talo-acet; conditions: Table IV, 0 denotes no measurable activity
[15] = E. coli PNP enzyme activity with substrate α-L-lyxo; conditions: Table IV, 0 denotes no measurable activity
[16] = E. coli PNP enzyme activity with substrate 5′-NH2; conditions: Table IV, 0 denotes no measurable activity

Molecule: NC[C@H]1O[C@@H](n2cnc3c(N)ncnc32)[C@H](O)[C@@H]1O [5′-amino-5′-deoxy-Ado, 5′-amino-5′-deoxyadenosine]
- Wild type, pure enzyme, rate of cleavage [1]: 539 nmol/mg/h
- M65A percent of wild-type activity ([2]; Table II, relative to wild-type PNP of the same line): (5%)
- M65V percent of wild-type activity [3]: (94%)
- M65V, crude extract, rate of cleavage [3]: 930 nmol/mg/h

Molecule: Cc1ncnc2c1ncn2[C@@H]1O[C@H]([C@H](C)O)[C@@H](O)[C@H]1O [5′-methyl(talo)MeP-R, 9-(6-deoxy-α-L-talofuranosyl)-6-methylpurine]
- human dosage determined from mouse tolerated dose [4]: 600 mg/m^2
- Wild type, pure enzyme, rate of cleavage [1]: 915 nmol/mg/h
- less toxic to human cells in culture than F-araA [5]: over 40 fold
- activity of mutant M65V PNP compared with wild-type PNP (in words) ([3]; Example 16 analysis): more activity
- Activity of M65V mutant greater than wild-type PNP ([3]; M65V versus wild-type PNP): 38 fold
- M65V, crude extract, rate of cleavage [3]: 75,000 nmole/mg/hr
- M65V, pure enzyme, rate of cleavage [3]: 76,000 nmole/mg/hr
- M65V cleavage of substrate relative to wild-type enzyme cleavage of F-araA ([3]; compared with wild-type enzyme cleaving F-araA): 80 times

Molecule: C#C[C@H](O)[C@H]1O[C@@H](n2cnc3c(C)ncnc32)[C@H](O)[C@@H]1O [9-(6,7-dideoxy-α-L-hept-6-ynofuranosyl)-6-methylpurine]
- activity of mutant M65A compared with wild-type enzyme (in words) ([2]; Example 16 analysis): more activity

Molecule: Nc1nc(F)nc2c1ncn2[C@@H]1O[C@H](CO)[C@@H](O)[C@@H]1O [F-araA, 9-(β-D-arabinofuranosyl)-2-fluoroadenine]
- Wild type, pure enzyme, rate of cleavage [1]: 1,250 nmole/mg/hr
- tumor response [6]: complete responses
- M65V, crude extract, rate of cleavage [3]: 904 nmol/mg/h

Molecule: Cc1ncnc2c1ncn2[C@H]1C[C@H](O)[C@@H](CO)O1 [MeP-dR, 9-(2-deoxy-β-D-ribofuranosyl)-6-methylpurine]
- Wild type, pure enzyme, rate of cleavage [1]: 528,000 nmole/mg/hr
- enzyme activity converting MeP-dR to MeP [7]: capable of converting MeP-dR to MeP
- M65V percent of wild-type activity [3]: (57%)
- M65V, crude extract, rate of cleavage [3]: 535,000 nmole/mg/hr
- M65V, pure enzyme, rate of cleavage [3]: 593,000 nmole/mg/hr

Molecule: wild-type E. coli PNP (Escherichia coli K-12)
- Km [8]: 2,980 μM and 3,000 μM
- Km [9]: 1,370 μM and 1,340 μM
- kcat [9]: 0.133 s⁻¹ and 0.383 s⁻¹
- Km [10]: 140 µM and 111 µM
- Vmax [10]: 30.2 µmol/min/mg and 18.3 µmol/min/mg
- kcat [10]: 12.1 s⁻¹ and 7.33 s⁻¹

B1: M65I (protein, UniProt P0ABP8 2-239, looked up, variant M65I)
Purine nucleoside …: ATPHINAEMGDFADVVLMPGDPLRAKYIAETFLEDAREVNNVRGMLGFTGTYKGRKISVMGHGIGIPSCSIYTKELITDFGVKKIIRVGSCGAVLPHVKLRDVVIGMGACTDSKVNRIRFKDHDFAAIADFDMVRNAVDAAKALGIDARVGNLFSADLFYSPDGEMFDVMEKYGILGVEMEAAGIYGVAAEFGAKALTICTVSDHIRTHEQTTAAERQTTFNDMIKIALESVLLGDKE
- Activity, allo-acet [11]: 0 nmol/mg/h
- Percent of Control Activity, F-araA [12]: 0.15%
- Percent of Control Activity, MeP-dR [13]: 0.02%
- Activity, talo-acet [14]: 0 nmol/mg/h

B2: E182A (protein, UniProt P0ABP8 2-239, looked up, variant E182A)
Purine nucleoside …: ATPHINAEMGDFADVVLMPGDPLRAKYIAETFLEDAREVNNVRGMLGFTGTYKGRKISVMGHGMGIPSCSIYTKELITDFGVKKIIRVGSCGAVLPHVKLRDVVIGMGACTDSKVNRIRFKDHDFAAIADFDMVRNAVDAAKALGIDARVGNLFSADLFYSPDGEMFDVMEKYGILGVEMAAAGIYGVAAEFGAKALTICTVSDHIRTHEQTTAAERQTTFNDMIKIALESVLLGDKE
- Percent of Control Activity, F-araA [12]: 0.9%
- Percent of Control Activity, MeP-dR [13]: 0.5%

B3: M65A (protein, UniProt P0ABP8 2-239, looked up, variant M65A)
Purine nucleoside …: ATPHINAEMGDFADVVLMPGDPLRAKYIAETFLEDAREVNNVRGMLGFTGTYKGRKISVMGHGAGIPSCSIYTKELITDFGVKKIIRVGSCGAVLPHVKLRDVVIGMGACTDSKVNRIRFKDHDFAAIADFDMVRNAVDAAKALGIDARVGNLFSADLFYSPDGEMFDVMEKYGILGVEMEAAGIYGVAAEFGAKALTICTVSDHIRTHEQTTAAERQTTFNDMIKIALESVLLGDKE
- Activity, allo-acet [11]: 0 nmol/mg/h
- Activity, α-L-lyxo [15]: 1,500 nmoles/mg/hour and 1,070 nmoles/mg/hour
- Percent of Control Activity, F-araA [12]: 1.6%
- Activity, MeP-dR [13]: 12,000 nmoles/mg/hour and 9,400 nmoles/mg/hour
- Percent of Control Activity, MeP-dR [13]: 1.5%

B4: D205A (protein, UniProt P0ABP8 2-239, looked up, variant D205A)
Purine nucleoside …: ATPHINAEMGDFADVVLMPGDPLRAKYIAETFLEDAREVNNVRGMLGFTGTYKGRKISVMGHGMGIPSCSIYTKELITDFGVKKIIRVGSCGAVLPHVKLRDVVIGMGACTDSKVNRIRFKDHDFAAIADFDMVRNAVDAAKALGIDARVGNLFSADLFYSPDGEMFDVMEKYGILGVEMEAAGIYGVAAEFGAKALTICTVSAHIRTHEQTTAAERQTTFNDMIKIALESVLLGDKE
- Percent of Control Activity, F-araA [12]: 1.1%
- Percent of Control Activity, MeP-dR [13]: 1.0%

B5: E182V (protein, UniProt P0ABP8 2-239, looked up, variant E182V)
Purine nucleoside …: ATPHINAEMGDFADVVLMPGDPLRAKYIAETFLEDAREVNNVRGMLGFTGTYKGRKISVMGHGMGIPSCSIYTKELITDFGVKKIIRVGSCGAVLPHVKLRDVVIGMGACTDSKVNRIRFKDHDFAAIADFDMVRNAVDAAKALGIDARVGNLFSADLFYSPDGEMFDVMEKYGILGVEMVAAGIYGVAAEFGAKALTICTVSDHIRTHEQTTAAERQTTFNDMIKIALESVLLGDKE
- Percent of Control Activity, F-araA [12]: 0.6%
- Percent of Control Activity, MeP-dR [13]: 0.3%

B6: E182Q (protein, UniProt P0ABP8 2-239, looked up, variant E182Q)
Purine nucleoside …: ATPHINAEMGDFADVVLMPGDPLRAKYIAETFLEDAREVNNVRGMLGFTGTYKGRKISVMGHGMGIPSCSIYTKELITDFGVKKIIRVGSCGAVLPHVKLRDVVIGMGACTDSKVNRIRFKDHDFAAIADFDMVRNAVDAAKALGIDARVGNLFSADLFYSPDGEMFDVMEKYGILGVEMQAAGIYGVAAEFGAKALTICTVSDHIRTHEQTTAAERQTTFNDMIKIALESVLLGDKE
- Percent of Control Activity, F-araA [12]: 1.0%
- Percent of Control Activity, MeP-dR [13]: 0.6%

B7: M65Q (protein, UniProt P0ABP8 2-239, looked up, variant M65Q)
Purine nucleoside …: ATPHINAEMGDFADVVLMPGDPLRAKYIAETFLEDAREVNNVRGMLGFTGTYKGRKISVMGHGQGIPSCSIYTKELITDFGVKKIIRVGSCGAVLPHVKLRDVVIGMGACTDSKVNRIRFKDHDFAAIADFDMVRNAVDAAKALGIDARVGNLFSADLFYSPDGEMFDVMEKYGILGVEMEAAGIYGVAAEFGAKALTICTVSDHIRTHEQTTAAERQTTFNDMIKIALESVLLGDKE
- Activity, allo-acet [11]: 0 nmol/mg/h
- Percent of Control Activity, F-araA [12]: 1.0%
- Activity, MeP-dR [13]: 6050 nmol/mg/h and 4210 nmol/mg/h
- Percent of Control Activity, MeP-dR [13]: 0.6%
- Activity, talo-acet [14]: 0 nmol/mg/h
- Activity, 5′-NH2 [16]: 26 nmol/mg/h and 42 nmol/mg/h

B8: D205N (protein, UniProt P0ABP8 2-239, looked up, variant D205N)
Purine nucleoside …: ATPHINAEMGDFADVVLMPGDPLRAKYIAETFLEDAREVNNVRGMLGFTGTYKGRKISVMGHGMGIPSCSIYTKELITDFGVKKIIRVGSCGAVLPHVKLRDVVIGMGACTDSKVNRIRFKDHDFAAIADFDMVRNAVDAAKALGIDARVGNLFSADLFYSPDGEMFDVMEKYGILGVEMEAAGIYGVAAEFGAKALTICTVSNHIRTHEQTTAAERQTTFNDMIKIALESVLLGDKE
- Percent of Control Activity, F-araA [12]: 2.4%
- Percent of Control Activity, MeP-dR [13]: 2.2%

B9: M181E (protein, UniProt P0ABP8 2-239, looked up, variant M181E)
Purine nucleoside …: ATPHINAEMGDFADVVLMPGDPLRAKYIAETFLEDAREVNNVRGMLGFTGTYKGRKISVMGHGMGIPSCSIYTKELITDFGVKKIIRVGSCGAVLPHVKLRDVVIGMGACTDSKVNRIRFKDHDFAAIADFDMVRNAVDAAKALGIDARVGNLFSADLFYSPDGEMFDVMEKYGILGVEEEAAGIYGVAAEFGAKALTICTVSDHIRTHEQTTAAERQTTFNDMIKIALESVLLGDKE
- Percent of Control Activity, F-araA [12]: 0.1%
- Percent of Control Activity, MeP-dR [13]: 0.04%

B10: H5N (protein, UniProt P0ABP8 2-239, looked up, variant H5N)
Purine nucleoside …: ATPNINAEMGDFADVVLMPGDPLRAKYIAETFLEDAREVNNVRGMLGFTGTYKGRKISVMGHGMGIPSCSIYTKELITDFGVKKIIRVGSCGAVLPHVKLRDVVIGMGACTDSKVNRIRFKDHDFAAIADFDMVRNAVDAAKALGIDARVGNLFSADLFYSPDGEMFDVMEKYGILGVEMEAAGIYGVAAEFGAKALTICTVSDHIRTHEQTTAAERQTTFNDMIKIALESVLLGDKE
- Activity, allo-acet [11]: 0 nmol/mg/h
- Activity, α-L-lyxo [15]: 16 nmol/mg/h and 11 nmol/mg/h
- Percent of Control Activity, F-araA [12]: 0.15%
- Percent of Control Activity, MeP-dR [13]: 0.08%
- Activity, talo-acet [14]: 0 nmol/mg/h
